Broadly, the Kd is the constant that tells how readily two partners part at equilibrium.

The target of assay [1] is HLA-B*08:01. In words: IEDB peptide-MHC binding, purified MHC/competitive/radioactivity; filed as Kd, often an IC50 or EC50 that approximates it; ≥ and ≤ were set here for values at or beyond the usual limits of such assays.
In assay [2] the target is HLA-A*02:01. The description is as above.
Assay [3] deals with HLA-A*02:01. In words: IEDB peptide-MHC binding, purified MHC/direct/fluorescence; filed as Kd, often an IC50 or EC50 that approximates it; ≥ and ≤ were set here for values at or beyond the usual limits of such assays.
The target in the next assay is HLA-A*31:01. The assay is described as above. Particulars: source organism: Salmonella enterica subsp. enterica serovar Typhimurium.
Another assay concerns the target HLA-A*69:01. The description is as above. The settings on record: source organism: Salmonella enterica subsp. enterica serovar Typhimurium.
For a further assay, the target named is HLA-B*15:01. Described as above.
In a further assay the target is HLA-B*27:05. The assay is described as above.
In a further assay the target is HLA-A*02:03. In words: IEDB peptide-MHC binding, purified MHC/competitive/radioactivity; filed as Kd, often an IC50 or EC50 that approximates it; ≥ and ≤ were set here for values at or beyond the usual limits of such assays.
The target in another assay is HLA-A*02:06. Described as above. The settings on record: source organism: Vaccinia virus WR.
The target of assay [4] is HLA-B*08:01. In words: IEDB peptide-MHC binding, purified MHC/direct/fluorescence; filed as Kd, often an IC50 or EC50 that approximates it; ≥ and ≤ were set here for values at or beyond the usual limits of such assays.
For another assay, the target named is HLA-B*51:01. In words: IEDB peptide-MHC binding, purified MHC/competitive/radioactivity; filed as Kd, often an IC50 or EC50 that approximates it; ≥ and ≤ were set here for values at or beyond the usual limits of such assays.
A further assay concerns the target HLA-A*11:01. In words: IEDB peptide-MHC binding, purified MHC/direct/fluorescence; filed as Kd, often an IC50 or EC50 that approximates it; ≥ and ≤ were set here for values at or beyond the usual limits of such assays. Particulars: source organism: SARS-CoV1.
The target of a further assay is HLA-B*07:02. The description is as above.
A further assay deals with HLA-B*40:01. The description is as above. The settings on record: source organism: SARS-CoV1.
In another assay the target is HLA-B*58:01. The assay is described as above.
In a further assay the target is HLA-A*01:01. The description is as above. The settings on record: source organism: Giardia lamblia ATCC 50803.
The target in the next assay is HLA-A*03:01. The assay is described as above. Particulars: source organism: Giardia lamblia ATCC 50803.
The mark [5] stands for this setting: source organism: Vaccinia virus WR.
The mark [6] stands for this setting: source organism: Salmonella enterica subsp. enterica serovar Typhimurium.
[7] abbreviates: source organism: Lassa virus Josiah.
The mark [8] stands for this setting: source organism: Dengue virus 1 Brazil/97-11/1997.
Setting [9] is: source organism: Dengue virus 4 Philippines/H241/1956.
Where [10] appears, read: source organism: Dengue virus 3 Martinique/1243/1999.
The mark [11] stands for this setting: source organism: Giardia lamblia ATCC 50803.
Setting [12] is: source organism: Dengue virus 2 Jamaica/1409/1983.

As for NMKFKNSVE, the Kd in the assay with HLA-B*08:01 [1] (setting [5]) came to 1340 nM.

Regarding SLLMWITQCFL, the dissociation constant (Kd) with HLA-A*02:01 [2] (source organism: Homo sapiens) was at least 50000 nM.

Take LAKRFSRGL: the Kd with HLA-B*08:01 [1] (source organism: Dengue virus 3 Singapore/8120/1995) is 962 nM.

Turning to SIFLIFSII, the Kd with HLA-B*08:01 [1] (source organism: Vaccinia virus Copenhagen) came out at 858 nM.

For the sequence FNKTIFLSE, in the assay with HLA-B*08:01 [1] (setting [5]), the Kd amounted to 255 nM.

GMKAFTAAV: the dissociation constant Kd in the assay with HLA-A*02:01 [3] (setting [6]) was 281 nM; in the assay with HLA-A*31:01 it was 74.8 nM; with HLA-A*69:01, 3560 nM; in the assay with HLA-B*15:01 (setting [6]) it was 59 nM; with HLA-B*27:05 (setting [6]), 7260 nM.

Turning to LLGCAANWI, the Kd in the assay with HLA-A*02:01 [2] (source organism: Hepatitis B virus subtype ayw) is at least 5000 nM.

Consider FLNISWFYI, for which the Kd is 0.0142 nM with HLA-A*02:01 [2] (setting [5]), 1.1 nM in the assay with HLA-A*02:03 (setting [5]) and 0.667 nM with HLA-A*02:06.

Turning to EKIIHFLTI, the equilibrium dissociation constant (Kd) in the assay with HLA-B*08:01 [1] (setting [5]) worked out at 5.04 nM.

Sequence YLKWRWLHF came in with a Kd with HLA-B*08:01 [4] (source organism: Burkholderia mallei ATCC 23344) of 2 nM.

For the sequence IMVGNETGL, in the assay with HLA-A*02:01 [2] (setting [7]), the equilibrium dissociation constant (Kd) amounted to 4170 nM.

For the sequence WPLNEGIMAV, in the assay with HLA-B*51:01 (source organism: Dengue virus 1 Singapore/S275/1990), the dissociation constant Kd was 304 nM.

For the sequence SIRYRQRLI, the dissociation constant (Kd) with HLA-B*08:01 [1] (setting [5]) was 218 nM.

In the case of MLLCHKPTL, the Kd with HLA-B*08:01 [1] (setting [5]) came to 18.7 nM.

As for EARKTFVEL, the Kd with HLA-B*08:01 [1] (setting [8]) came out at 97.1 nM.

In the case of NPKFFKVYL, the dissociation constant Kd with HLA-B*08:01 [1] (setting [5]) was determined as 190 nM.

In the case of TMYYKDVTV, the Kd with HLA-A*02:01 [2] (source organism: Human alphaherpesvirus 1 strain 17) came out at 25 nM.

For the sequence NQATTKTTF, the Kd with HLA-A*11:01 is at least 79900 nM; in the assay with HLA-B*07:02 (source organism: SARS-CoV1), 19800 nM; with HLA-B*08:01 [4] (source organism: SARS-CoV1), 7150 nM; with HLA-B*15:01 (source organism: SARS-CoV1), 203 nM; with HLA-B*40:01, at least 57300 nM; in the assay with HLA-B*58:01 (source organism: SARS-CoV1) it was 9270 nM.

With EPKISLLPL, the equilibrium dissociation constant (Kd) in the assay with HLA-B*08:01 [1] (setting [5]) worked out at 8.53 nM.

With SIHAHHQWM, the Kd with HLA-B*08:01 [1] (setting [8]) is 349 nM.

Consider VKPKGKVVDL, for which the equilibrium dissociation constant (Kd) in the assay with HLA-B*08:01 [1] (setting [9]) was 2150 nM.

In the case of GPLVAGGLLI, the dissociation constant (Kd) in the assay with HLA-B*51:01 (setting [10]) turned out to be 6030 nM.

For MPTYKHLIM, the dissociation constant (Kd) with HLA-B*08:01 [1] (setting [5]) stood at 0.13 nM.

IRELMSVPY returned a dissociation constant Kd with HLA-B*27:05 (source organism: Tacaribe virus strain V7) of at least 20000 nM.

On to LMTLKDAML, for which the Kd in the assay with HLA-A*02:01 [2] (setting [7]) was found to be 893 nM.

For SIVSPFIPLL, the Kd with HLA-A*02:01 [2] (source organism: Hepatitis B virus) was at least 25000 nM.

With LPMLYFLYV, the Kd with HLA-B*08:01 [1] (setting [5]) was found to be 2.51 nM.

Consider IMKNHLRDI, for which the equilibrium dissociation constant (Kd) in the assay with HLA-A*02:01 [2] (setting [7]) came to 12500 nM.

Regarding INRKGKVIGL, in the assay with HLA-B*08:01 [1] (setting [9]), the dissociation constant Kd is 3660 nM.

On to GMFGGCFAA, for which the Kd with HLA-A*02:01 [3] (setting [6]) was found to be 10 nM; with HLA-A*31:01 it was 1220 nM; in the assay with HLA-A*69:01, 2770 nM; in the assay with HLA-B*15:01 (setting [6]), 161 nM.

ATSGYRIAY: the dissociation constant (Kd) in the assay with HLA-A*01:01 was 68.7 nM; with HLA-A*02:01 [3] (setting [11]), at least 20000 nM; in the assay with HLA-A*03:01 it was at least 20000 nM; in the assay with HLA-B*07:02 (setting [11]), at least 20000 nM; with HLA-B*15:01 (setting [11]) it was 45 nM; with HLA-B*27:05 (setting [11]), at least 20000 nM. In the assay with HLA-B*58:01 (setting [11]), this sequence yielded an equilibrium dissociation constant (Kd) of 1650 nM.

For the sequence MYKSRVERV, in the assay with HLA-B*08:01 [1] (setting [5]), the dissociation constant (Kd) turned out to be 46.5 nM.

As for SPIINREGKV, the Kd with HLA-B*51:01 (setting [10]) is at least 69600 nM.

Turning to RTNDWDFVV, the Kd with HLA-A*02:01 [2] (source organism: dengue virus type 2) amounted to 167 nM.

Take EAKRKLTEL: the Kd in the assay with HLA-B*08:01 [1] (setting [5]) is 2.45 nM.

For the sequence RNALDNLAVL, the Kd with HLA-B*08:01 [1] (source organism: Dengue virus 2 16681-PDK53) stood at 6430 nM.

As for IPITAAAWYL, the results for the equilibrium dissociation constant (Kd) in the assay with HLA-B*08:01 [1] (setting [12]) and in the assay with HLA-B*51:01 (setting [12]) were 3760 nM and 6230 nM, respectively.

Regarding GIMAVGLVSL, the Kd with HLA-A*02:03 (setting [9]) worked out at 24.1 nM; with HLA-B*08:01 [1] (setting [9]), 1230 nM.

For MVQADSGCVV, in the assay with HLA-B*51:01 (setting [12]), the dissociation constant Kd is at least 30500 nM.

For the origin of these results see the Immune Epitope Database (IEDB).
